Experiments:
thrombin [1] = biological target: T1, thrombin (human, UniProt P00734 328-622); test: cell-based or functional assay
factor Xa [2] = biological target: T2, factor Xa (human, UniProt P00742 41-179; P00742 235-488, limits assumed); test: cell-based or functional assay
T2 sequence (P00742 41-179 limits assumed, chain 1 of 2): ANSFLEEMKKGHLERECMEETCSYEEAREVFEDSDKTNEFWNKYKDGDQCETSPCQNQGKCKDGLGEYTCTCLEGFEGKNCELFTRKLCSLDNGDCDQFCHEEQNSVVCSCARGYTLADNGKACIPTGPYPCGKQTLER
T2 sequence (P00742 235-488 limits assumed, chain 2 of 2): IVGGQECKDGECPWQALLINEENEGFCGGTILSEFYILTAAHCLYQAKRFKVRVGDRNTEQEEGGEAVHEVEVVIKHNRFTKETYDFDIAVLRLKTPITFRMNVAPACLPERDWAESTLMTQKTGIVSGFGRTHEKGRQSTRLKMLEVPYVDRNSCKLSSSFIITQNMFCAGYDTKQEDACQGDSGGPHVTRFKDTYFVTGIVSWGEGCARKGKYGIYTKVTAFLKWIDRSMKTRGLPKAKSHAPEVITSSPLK

thrombin [3] = biological target: T1, thrombin; test: Kapp IIa/hep relative to plasma.at3
factor Xa [4] = biological target: T2, factor Xa; test: Kapp fXa/hep relative to plasma.at3
thrombin [5] = biological target: T1, thrombin; test: Kapp IIa/prog relative to plasma.at3
factor Xa [6] = biological target: T2, factor Xa; test: Kapp fXa/prog relative to plasma.at3
thrombin [7] = biological target: T1, thrombin; test: thrombin prog: pseudo-first-order loss of chromogenic activity, no heparin, 25 C
Method: (§1) Polybrene was added with the chromogenic substrate to quench the heparin dependent reaction. […] This was plotted against the heparin concentration to calculate the second-order rate constant for the inhibition by the heparin-ATIII complex, (Kₕₑₚ) from the equation Kobs=Kₕₑₚ[H]ₒ([AT]ₒ/[AT]ₒ+Kd)+Kuncat[AT]ₒ

factor Xa [8] = biological target: T2, factor Xa; test: factor Xa prog: pseudo-first-order loss of chromogenic activity, no heparin, 25 C
Method: as §1

factor Xa [9] = biological target: T3, factor Xa (human, UniProt P00742 41-179; P00742 235-488, limits assumed); test: heparin cofactor assay, HCA expt #4; ATIII titrated on 10 nM fXa + 50 ug/ml UFH, chromogenic readout
T3 construct: Active factor Xa has a light and a heavy chain; also called fXa
Method: (§2) After 3 minutes, the reactions were quenched with polybrene and chromogenic substrate S2238 (thrombin) or S2765 (fXa), and the initial rate of chromophore production (405 nm) recorded to obtain a measurement residual, uninhibited thrombin or factor Xa. IC50s were determined from plots of ATIII concentration vs. percent residual target enzyme activity.
T3 sequence (P00742 41-179 limits assumed, form in doubt, chain 1 of 2): as the sequence (P00742 41-179 limits assumed, chain 1 of 2) above
T3 sequence (P00742 235-488 limits assumed, form in doubt, chain 2 of 2): as the sequence (P00742 235-488 limits assumed, chain 2 of 2) above

thrombin [10] = biological target: thrombin (human, UniProt P00734 328-622); test: heparin cofactor assay, HCA expt #4; ATIII titrated on 10 nM thrombin + 50 ug/ml UFH, chromogenic readout
Method: as §2

Binder | IC50 IIa/UFH; HCA #3 (thrombin [1]) | IC50 IIa/UFH; HCA #4 (thrombin [1]) | rsd. IIa catG; CA #15; stg1 conc 200 (thrombin [1]) | rsd. IIa hne; CA #15; stg1 conc 200 (thrombin [1]) | rsd. IIa no add; CA #15; stg1 conc 200 (thrombin [1]) | IC50 fXa/UFH; HCA #3 (factor Xa [2]) | IC50 fXa/UFH; HCA #4 (factor Xa [2]) | rsd. Xa catG; CA #15; stg1 conc 200 (factor Xa [2]) | rsd. Xa hne; CA #15; stg1 conc 200 (factor Xa [2]) | rsd. Xa no add; CA #15; stg1 conc 200 (factor Xa [2]) | Kapp as a percentage of the plasma ATIII value (thrombin [3]) | Kapp as a percentage of the plasma ATIII value (factor Xa [4]) | Kapp as a percentage of the plasma ATIII value (thrombin [5]) | Kapp as a percentage of the plasma ATIII value (factor Xa [6]) | kapp (apparent second-order inhibition rate constant) (thrombin [7]) | kapp (apparent second-order inhibition rate constant) (factor Xa [8]) | IC50 (factor Xa [9]) | IC50 (thrombin [10])
LEAI.472 (other) SPVDICTAKPRDIPMNPMCIYRSPEKKATEDEGSEQKIPEATNRRVWELSKANSRFATTFYQHLADSKNDNDNIFLSPLSISTAFAMTKLGACNDTLQQLMEVFKFDTISEKTSDQIHFFFAKLNCRLYRKANKASKLVSANRLFGDKSLTFNETYQDISELVYGAKLQPLDFKENAEQSRAAINKWVSNKTEGRITDVIPSEAINELTVLVLVNTIYFKGLWKSKFSPENTRKELFYKADGESCSASMMYQEGKFRYRRVAEGTQVLELPFKGDDITMVLILPKPEKSLAKVEKELTPEVLQEWLDELEEMMLVVHMPRFRIEDGFSLKEQLQDMGLVDLFSPEKSKLPGIVAEGRDDLYVSDAFHKAFLEVNEEGSEAAASTALEANGRSLNPNRVTFKANRPFLVFIREVPLNTIIFMGRVANPCVK | 110 nM | 200 nM | 1% | 21% | 0% | 15 nM | 38 nM | 0% | 1% | 0% | 3% | 52% | 4% | 86% | 278 M⁻¹ s⁻¹ | 1800 M⁻¹ s⁻¹ | – | –
13C.438 (other, N-linked glycans added by Drosophila S2 cells; not carried by the letters, Made in Drosophila S2 cells (DES) on the S137A background; N-terminus printed as SPVDI---) SPVDICTAKPRDIPMNPMCIYRSPEKKATEDEGSEQKIPEATNRRVWELSKANSRFATTFYQHLADSKNDNDNIFLSPLSISTAFAMTKLGACNDTLQQLMEVFKFDTISEKTSDQIHFFFAKLNCRLYRKANKASKLVSANRLFGDKSLTFNETYQDISELVYGAKLQPLDFKENAEQSRAAINKWVSNKTEGRITDVIPSEAINELTVLVLVNTIYFKGLWKSKFSPENTRKELFYKADGESCSASMMYQEGKFRYRRVAEGTQVLELPFKGDDITMVLILPKPEKSLAKVEKELTPEVLQEWLDELEEMMLVVHMPRFRIEDGFSLKEQLQDMGLVDLFSPEKSKLPGIVAEGRDDLYVSDAFHKAFLEVNEEGSEAAASTELENAGRSLNPNRVTFKANRPFLVFIREVPLNTIIFMGRVANPCVK | – | – | – | – | – | – | – | – | – | – | – | – | – | – | – | – | 22 nM | > 1000 nM
leai(bv) (other, human, UniProt P01008 33-464, looked up, mature; also called LEAI (parent)) HGSPVDICTAKPRDIPMNPMCIYRSPEKKATEDEGSEQKIPEATNRRVWELSKANSRFATTFYQHLADSKNDNDNIFLSPLSISTAFAMTKLGACNDTLQQLMEVFKFDTISEKTSDQIHFFFAKLNCRLYRKAAKSSKLVSANRLFGDKSLTFNETYQDISELVYGAKLQPLDFKENAEQSRAAINKWVSNKTEGRITDVIPSEAINELTVLVLVNTIYFKGLWKSKFSPENTRKELFYKADGESCSASMMYQEGKFRYRRVAEGTQVLELPFKGDDITMVLILPKPEKSLAKVEKELTPEVLQEWLDELEEMMLVVHMPRFRIEDGFSLKEQLQDMGLVDLFSPEKSKLPGIVAEGRDDLYVSDAFHKAFLEVNEEGSEAAASTALEAIGRSLNPNRVTFKANRPFLVFIREVPLNTIIFMGRVANPCVK | – | – | – | – | – | – | – | – | – | – | 159% | 192% | 75% | 457% | 5280 M⁻¹ s⁻¹ | 9550 M⁻¹ s⁻¹ | – | –
